Results on 14 molecules are retold here after patent publication US20230406942A1 (HORIZON THERAPEUTICS IRELAND DAC, published 2023).

Experiment [1] deals with T1, IGF-1R (coated on Maxisorp plates) (UniProt P08069 31-932, limits assumed).
T1 construct: also called the receptor
Nature of the experiment: competition ELISA, plate-coated IGF-1R, antibody titrated against 20 ng/mL IGF-1 biotin. On the procedure:
(§1) Maxisorp plates were coated with 1.5 ug/mL of IGF-1R overnight at 4° C. Plates were washed and blocked with 1% BSA. Subsequently, serially diluted anti-IGF1R antibodies were incubated for 30 min at room temperature followed by an incubation with a final concentration of 20 ng/mL IGF-1 biotin. Plates were washed and streptavidin-horseradish peroxidase was added. After a final wash, 3,3′,5,5′-Tetramethylbenzidine was added for 8 minutes. The reaction was terminated with a HCL based stop solution. Plates were measured for absorbance at 450 nm, and the data was analyzed using Softmax Pro 7.1 software.
Background: ELISA stands for enzyme-linked immunosorbent assay.

The next experiment deals with IGF-1R on NCI-H322 cells (UniProt P08069 31-1367, limits assumed). Nature of the experiment: cell-based or functional assay.
Sequence of IGF-1R on NCI-H322 cells (P08069 31-1367 limits assumed): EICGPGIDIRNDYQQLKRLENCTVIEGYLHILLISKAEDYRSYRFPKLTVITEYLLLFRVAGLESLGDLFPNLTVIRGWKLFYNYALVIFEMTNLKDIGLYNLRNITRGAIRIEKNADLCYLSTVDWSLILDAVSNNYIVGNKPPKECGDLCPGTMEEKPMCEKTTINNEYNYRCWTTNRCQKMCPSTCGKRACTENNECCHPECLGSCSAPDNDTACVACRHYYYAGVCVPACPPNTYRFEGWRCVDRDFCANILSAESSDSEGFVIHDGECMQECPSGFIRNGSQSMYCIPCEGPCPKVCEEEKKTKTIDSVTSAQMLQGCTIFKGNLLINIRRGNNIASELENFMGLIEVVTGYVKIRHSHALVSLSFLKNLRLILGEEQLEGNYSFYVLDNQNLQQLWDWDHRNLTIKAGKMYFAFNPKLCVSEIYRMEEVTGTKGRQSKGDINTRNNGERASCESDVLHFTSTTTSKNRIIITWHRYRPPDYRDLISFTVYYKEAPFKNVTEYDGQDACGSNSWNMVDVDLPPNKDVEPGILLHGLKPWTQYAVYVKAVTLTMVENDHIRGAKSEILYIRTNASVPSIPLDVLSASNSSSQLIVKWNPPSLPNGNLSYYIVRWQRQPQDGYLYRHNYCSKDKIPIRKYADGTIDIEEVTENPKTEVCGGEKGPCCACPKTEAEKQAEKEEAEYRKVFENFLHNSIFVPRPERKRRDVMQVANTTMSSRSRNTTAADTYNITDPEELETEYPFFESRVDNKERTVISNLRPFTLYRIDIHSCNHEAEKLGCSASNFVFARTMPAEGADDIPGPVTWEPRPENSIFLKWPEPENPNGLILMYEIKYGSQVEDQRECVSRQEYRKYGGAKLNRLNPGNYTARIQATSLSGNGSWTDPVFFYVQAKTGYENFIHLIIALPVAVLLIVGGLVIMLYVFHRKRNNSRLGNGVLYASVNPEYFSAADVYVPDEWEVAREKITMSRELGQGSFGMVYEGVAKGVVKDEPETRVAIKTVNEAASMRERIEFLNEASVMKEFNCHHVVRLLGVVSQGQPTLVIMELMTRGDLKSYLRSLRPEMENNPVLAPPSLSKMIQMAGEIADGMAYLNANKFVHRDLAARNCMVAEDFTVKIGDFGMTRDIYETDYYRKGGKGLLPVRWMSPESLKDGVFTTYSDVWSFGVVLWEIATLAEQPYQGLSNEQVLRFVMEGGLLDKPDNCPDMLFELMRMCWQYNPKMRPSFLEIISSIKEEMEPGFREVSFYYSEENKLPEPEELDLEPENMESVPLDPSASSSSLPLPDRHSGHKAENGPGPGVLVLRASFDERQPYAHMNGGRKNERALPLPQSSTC
Experiment [2] concerns the target T1, IGF-1R (coated on Maxisorp plates). Nature of the experiment: competition ELISA, plate-coated IGF-1R, antibody titrated against 200 ng/mL IGF-2 biotin. On the procedure:
as §1, with “of 200” for “of 20”, “ng/mL of IGF-2” for “ng/mL IGF-1”

Experiment [3] has as its target T2, Human IGF-I R (Glu 31-Asn 932 with a polyhistidine tag at the C-terminus) (human, UniProt P08069 31-932).
T2 construct: range 31-932; Bought protein; captured on Ni-NTA biosensors for BLI; also called IGF1R; IGF-1R; not shown: C-terminal polyhistidine tag
Nature of the experiment: BLI (Octet RED96e), His-tagged IGF-1R on Ni-NTA sensors, Fab 0-100 nM, 1:1 global fit. From the text: Human IGF-I R (Glu 31-Asn 932 with a polyhistidine tag at the C-terminus) expressed from human 293 cells (HEK293) was purchased from ACROBiosystems (Newark, DE). Dip and Read Ni-NTA (NTA) Biosensors from Sartorius (Bohemia, NY) pre-immobilized with nickel-charged Tris-NTA, were enabled for kinetic characterization of novel anti-human IGF-I R antibodies. Briefly, antibody variants were digested into purified Fab fragments (to enable 1:1 binding and global fitting). The Fab[…] Fab kit from GENOVIS (Cambridge, MA) was used to generate a monovalent binding Fab domain of each antibody variant, Fab fragments are subsequently separated from Fc using the CaptureSelect™ Fc column. Binding of variant Fabs to NTA-captured human IGF-I R (His-tagged) was monitored by biolayer interferometry (BLI) on an Octet RED96e (Sartorius). NTA biosensors were charged with 10 mM NiCl2, then loaded with His-tagged human IGF-I R at approximately 5 ug/mL to an average loading response of 0.67 nm shift. Variant Fabs were assayed from 0-100 nM in 10X kinetics buffer (1X PBS, 0.1% BSA, 0.02% Tween-20 plus Kathon as a preservative) from Sartorius. Binding kinetics and affinities were determined using the Octet Analysis Studio Software (Sartorius) by applying a 1:1 global fitting to double-referenced subtracted data.
(In general: BLI is a label-free optical method that tracks binding on a fibre tip over time.)

T2 sequence (P08069 31-932 limits assumed): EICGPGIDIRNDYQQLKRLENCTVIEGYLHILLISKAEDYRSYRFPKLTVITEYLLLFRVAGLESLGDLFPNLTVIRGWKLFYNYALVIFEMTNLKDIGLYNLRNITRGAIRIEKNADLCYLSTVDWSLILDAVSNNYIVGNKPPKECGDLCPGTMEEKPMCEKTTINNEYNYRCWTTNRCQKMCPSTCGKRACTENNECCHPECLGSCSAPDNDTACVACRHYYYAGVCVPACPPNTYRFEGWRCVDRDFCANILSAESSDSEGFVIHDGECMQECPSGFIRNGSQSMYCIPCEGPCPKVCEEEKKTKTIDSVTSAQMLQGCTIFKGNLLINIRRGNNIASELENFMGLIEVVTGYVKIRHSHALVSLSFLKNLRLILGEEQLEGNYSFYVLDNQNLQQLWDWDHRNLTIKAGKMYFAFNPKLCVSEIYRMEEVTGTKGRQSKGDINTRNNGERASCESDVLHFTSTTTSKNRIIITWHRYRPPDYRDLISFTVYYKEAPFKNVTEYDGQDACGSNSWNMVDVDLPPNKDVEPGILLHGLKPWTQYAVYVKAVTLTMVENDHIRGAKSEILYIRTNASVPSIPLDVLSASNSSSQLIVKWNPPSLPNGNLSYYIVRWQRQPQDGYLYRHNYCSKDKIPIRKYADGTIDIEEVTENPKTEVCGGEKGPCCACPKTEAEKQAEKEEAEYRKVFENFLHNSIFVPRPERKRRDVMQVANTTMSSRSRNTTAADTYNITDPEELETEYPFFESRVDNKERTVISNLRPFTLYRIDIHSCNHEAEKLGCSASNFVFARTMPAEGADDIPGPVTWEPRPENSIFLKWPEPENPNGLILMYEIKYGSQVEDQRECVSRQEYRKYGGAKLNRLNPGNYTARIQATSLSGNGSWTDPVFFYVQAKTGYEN
T1 sequence (P08069 31-932 limits assumed): as above

B1: A11 antibody (antibody, V domains shown)
VH: QVELVESGGGVVQPGRSQRLSCAASGFTFSSYGMHWVRQAPGKGLEWVAYIWFDGSSTYYADSVRGRFTISRDNSKNTLYLQMNSLRAEDTAVYFCARELGRRYFDLWGRGTLVSVSS
VL: EIVLTQSPATLSLSPGERATLSCRASQSVSSYLAWYQQKPGQAPRLLIYDASKRATGIPARFSGSGSGTDFTLTISSLEPEDFAVYYCQQRSKYPPWTFGQGTKVESK
notes: Whole antibody
Take B1: the values for the half-maximal inhibitory concentration (IC50) in experiment [1] and in experiment [2] were 0.351 µg/mL and 0.158 µg/mL, respectively. The “Inhibition of Phosphorylation IC50” value with IGF-1R on NCI-H322 cells amounted to 0.0115 µg/mL.

B2: C10 antibody (antibody, V domains shown)
VH: QVELVESGGGVVQPGRSQRLSCAASGFTFSSAGMHWVRQAPGKGLEWVAIIWADGSSTYYADSVRGRFTISRDNSKNTLYLQMNSLRAEDTAVYFCARELGRRYFDLWGRGTLVSVSS
VL: EIVLTQSPATLSLSPGERATLSCRASQSVSSYLAWYQQKPGQAPRLLIYDASKRATGIPARFSGSGSGTDFTLTISSLEPEDFAVYYCQQRSKYPPWTFGQGTKVESK
Turning to B2, the “Inhibition of Phosphorylation IC50” value with IGF-1R on NCI-H322 cells stood at 0.0065 µg/mL.

B3: B02 Fab (Fab, V domains shown)
VH: QVELVESGGGVVQPGRSQRLSCAASGFTFSSTGMHWVRQAPGKGLEWVAYIWFDGSSTYYADSVRGRFTISRDNSKNTLYLQMNSLRAEDTAVYFCARELNRRYFDLWGRGTLVSVSS
VL: EIVLTQSPATLSLSPGERATLSCRASQSVSSYLAWYQQKPGQAPRLLIYDASKRATGIPARFSGSGSGTDFTLTISSLEPEDFAVYYCQQRSKYPPWTFGQGTKVESK
In experiment [3], B3 displayed a Kd of 1.54 nM, a koff of 0.00125 s⁻¹ and a kon of 810000 M⁻¹ s⁻¹.

B4: H11 Fab (Fab, V domains shown)
VH: QVELVESGGGVVQPGRSQRLSCAASGFTFSSYGMHWVRQAPGKGLEWVATIWHDGSSTYYADSVRGRFTISRDNSKNTLYLQMNSLRAEDTAVYFCARELGRRYFDLWGRGTLVSVSS
VL: EIVLTQSPATLSLSPGERATLSCRASQSVSSALAWYQQKPGQAPRLLIYDASKRATGIPARFSGSGSGTDFTLTISSLEPEDFAVYYCQQRGKYPPWTFGQGTKVESK
In the case of B4, in experiment [3], the Kd amounted to 0.418 nM, the koff came to 0.000744 s⁻¹ and the kon turned out to be 1.78e+06 M⁻¹ s⁻¹.

B5: A11 Fab (Fab, V domains shown)
VH: QVELVESGGGVVQPGRSQRLSCAASGFTFSSYGMHWVRQAPGKGLEWVAYIWFDGSSTYYADSVRGRFTISRDNSKNTLYLQMNSLRAEDTAVYFCARELGRRYFDLWGRGTLVSVSS
VL: EIVLTQSPATLSLSPGERATLSCRASQSVSSYLAWYQQKPGQAPRLLIYDASKRATGIPARFSGSGSGTDFTLTISSLEPEDFAVYYCQQRSKYPPWTFGQGTKVESK
B5: in experiment [3], the Kd stood at 0.849 nM, the koff stood at 0.00076 s⁻¹ and the kon stood at 895000 M⁻¹ s⁻¹.

B6: E01 Fab (Fab, V domains shown)
VH: QVELVESGGGVVQPGRSQRLSCAASGFTFSSYGMHWVRQAPGKGLEWVAIIWFDGSSTYYADSVRGRFTISRDNSKNTLYLQMNSLRAEDTAVYFCARELGRRYFDLWGRGTLVSVSS
VL: EIVLTQSPATLSLSPGERATLSCRASQSVSSYLAWYQQKPGQAPRLLIYDASKRATGIPARFSGSGSGTDFTLTISSLEPEDFAVYYCQQRSKYPPWTFGQGTKVESK
On to B6, for which, in experiment [3], the affinity, expressed as Kd, was 0.179 nM; the off-rate (koff) is 0.000298 s⁻¹; the on-rate constant (kon) amounted to 2.66e+06 M⁻¹ s⁻¹.

B7: B09 antibody (antibody, V domains shown)
VH: QVELVESGGGVVQPGRSQRLSCAASGFTFSSHGMHWVRQAPGKGLEWVAIIAGDASTTYYADSVRGRFTISRDNSKNTLYLQMNSLRAEDTAVYFCARELGRRYFDLWGRGTLVSVSS
VL: EIVLTQSPATLSLSPGERATLSCRASQSVSSYLAWYQQKPGQAPRLLIYDASKRATGIPARFSGSGSGTDFTLTISSLEPEDFAVYYCQQRSKYPPWTFGQGTKVESK
notes: Whole antibody
Take B7: the IC50 is 0.337 µg/mL in experiment [1] and 0.153 µg/mL in experiment [2]. In addition, the “Inhibition of Phosphorylation IC50” value with IGF-1R on NCI-H322 cells stood at 0.0083 µg/mL.

B8: B10 Fab (Fab, V domains shown)
VH: QVELVESGGGVVQPGRSQRLSCAASGFTFSSYGMHWVRQAPGKGLEWVATIWFDGSSTYYADSVRGRFTISRDNSKNTLYLQMNSLRAEDTAVYFCARELGRRYFDLWGRGTLVSVSS
VL: EIVLTQSPATLSLSPGERATLSCRASQSVSSYLAWYQQKPGQAPRLLIYDASKRATGIPARFSGSGSGTDFTLTISSLEPEDFAVYYCQQRSKYPPWTFGQGTKVESK
In experiment [3], B8 returned a dissociation constant (Kd) of 0.898 nM, a koff of 0.000826 s⁻¹ and a kon of 921000 M⁻¹ s⁻¹.

B9: F02 Fab (Fab, V domains shown)
VH: QVELVESGGGVVQPGRSQRLSCAASGFTFSSHGMHWVRQAPGKGLEWVATIWFDGSSTYYADSVRGRFTISRDNSKNTLYLQMNSLRAEDTAVYFCARELGRRYFDLWGRGTLVSVSS
VL: EIVLTQSPATLSLSPGERATLSCRASQSVSSTLAWYQQKPGQAPRLLIYDASKRATGIPARFSGSGSGTDFTLTISSLEPEDFAVYYCQQRSKYPPWTFGQGTKVESK
In experiment [3], B9 returned an equilibrium dissociation constant (Kd) of 1.92 nM, a koff of 0.0023 s⁻¹ and a kon of 1.2e+06 M⁻¹ s⁻¹.

B10: C10 Fab (Fab, V domains shown)
VH: QVELVESGGGVVQPGRSQRLSCAASGFTFSSAGMHWVRQAPGKGLEWVAIIWADGSSTYYADSVRGRFTISRDNSKNTLYLQMNSLRAEDTAVYFCARELGRRYFDLWGRGTLVSVSS
VL: EIVLTQSPATLSLSPGERATLSCRASQSVSSYLAWYQQKPGQAPRLLIYDASKRATGIPARFSGSGSGTDFTLTISSLEPEDFAVYYCQQRSKYPPWTFGQGTKVESK
In experiment [3], B10 showed a Kd of 0.447 nM, a koff of 0.000485 s⁻¹ and an association rate constant (kon) of 1.08e+06 M⁻¹ s⁻¹.

B11: D03 Fab (Fab, V domains shown)
VH: QVELVESGGGVVQPGRSQRLSCAASGFTFSSHGMHWVRQAPGKGLEWVAYIWFDGSSTYYADSVRGRFTISRDNSKNTLYLQMNSLRAEDTAVYFCARELGRRYFDLWGRGTLVSVSS
VL: EIVLTQSPATLSLSPGERATLSCRASQSVSSALAWYQQKPGQAPRLLIYDASKRATGIPARFSGSGSGTDFTLTISSLEPEDFAVYYCQQRSKYPPWTFGQGTKVESK
notes: also called clone D03
For B11, in experiment [3], the equilibrium dissociation constant (Kd) came out at 0.407 nM, the koff is 0.000603 s⁻¹ and the on-rate (kon) turned out to be 1.48e+06 M⁻¹ s⁻¹.

B12: B02 antibody (antibody, V domains shown)
VH: QVELVESGGGVVQPGRSQRLSCAASGFTFSSTGMHWVRQAPGKGLEWVAYIWFDGSSTYYADSVRGRFTISRDNSKNTLYLQMNSLRAEDTAVYFCARELNRRYFDLWGRGTLVSVSS
VL: EIVLTQSPATLSLSPGERATLSCRASQSVSSYLAWYQQKPGQAPRLLIYDASKRATGIPARFSGSGSGTDFTLTISSLEPEDFAVYYCQQRSKYPPWTFGQGTKVESK
notes: Whole antibody
Regarding B12, the values for the half-maximal inhibitory concentration (IC50) in experiment [1] and in experiment [2] were 0.386 µg/mL and 0.115 µg/mL, respectively. For the same molecule, the “Inhibition of Phosphorylation IC50” value with IGF-1R on NCI-H322 cells was found to be 0.0135 µg/mL.

B13: D10 antibody (antibody, V domains shown)
VH: QVELVESGGGVVQPGRSQRLSCAASGFTFSSYGMHWVRQAPGKGLEWVAIINFDGSSTYYADSVRGRFTISRDNSKNTLYLQMNSLRAEDTAVYFCARELGRRYFDLWGRGTLVSVSS
VL: EIVLTQSPATLSLSPGERATLSCRASQSVSSYLAWYQQKPGQAPRLLIYDASKRATGIPARFSGSGSGTDFTLTISSLEPEDFAVYYCQQRSKYPPWTFGQGTKVESK
On to B13, for which, in the experiment with IGF-1R on NCI-H322 cells, the “Inhibition of Phosphorylation IC50” value amounted to 0.0067 µg/mL.

B14: B09 Fab (Fab, V domains shown)
VH: QVELVESGGGVVQPGRSQRLSCAASGFTFSSHGMHWVRQAPGKGLEWVAIIAGDASTTYYADSVRGRFTISRDNSKNTLYLQMNSLRAEDTAVYFCARELGRRYFDLWGRGTLVSVSS
VL: EIVLTQSPATLSLSPGERATLSCRASQSVSSYLAWYQQKPGQAPRLLIYDASKRATGIPARFSGSGSGTDFTLTISSLEPEDFAVYYCQQRSKYPPWTFGQGTKVESK
Take B14: in experiment [3], binding was characterised by a dissociation constant (Kd) of 1.13 nM, the koff is 0.000799 s⁻¹ and the on-rate (kon) amounted to 705000 M⁻¹ s⁻¹.

The term IC50 denotes the concentration at which inhibition is half-maximal. Read a low IC50 as greater potency in that assay. Broadly, the Kd is the concentration at which binding is half-saturated. Lower therefore signals tighter binding. In general, koff refers to the first-order rate constant of dissociation. A higher koff goes with a short-lived complex. Usually kon stands for the second-order rate constant of association.
